According to US20240392003A1 (NUMAB THERAPEUTICS, published 2024):
Where two headings read alike, the source gives them in different places.

What was measured:
[1] = target: T1, human ROR1 expressed on cells (human, UniProt Q01973 30-937); test: flow cytometry, MDA-MB-231 cells, 1 mg/ml hSA
T1 construct: whole, on cells; One molecule for cell-surface ROR1 on all cell lines; the cell line is named under assay; also called hROR1; plasma membrane human ROR1
Protocol: After incubation at 4° C. for 1 h in presence of 1 mg/mi of human serum albumin (hSA), plates were washed and incubated with specific detection antibodies.
The binding of anti-ROR1xhSAxCD3 scMATCH3 molecules to plasma membrane human ROR1 was assessed by flow cytometry.

[2] = target: T2, recombinant human CD3 epsilon extra-cellular domain protein (His-Tag, SinoBiological) (human, UniProt P07766 23-126); test: SPR; hCD3ε immobilized, two-state fit;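 further: biacore T200 measurement with target covalently coupled to a CM5 chip, antibody constructs injected as analyte over a concentration series, constants derived in Biacore Evaluation software 3.2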
T2 construct: extracellular domain; Bought; also called hCD3ε; human CD3ε; not shown: His tag

[3] = target: T2, recombinant human CD3 epsilon …; test: SPR; hCD3ε immobilized, two-state fit (kd1)
Protocol: (§1) Binding kinetics (including affinity) of the nine selected scMATCH3 molecules to recombinant human CD3 epsilon extra-cellular domain protein (hCD3ε; His-Tag, SinoBiological) were determined by SPR analysis on a T200 device (Biacore, Cytiva). Recombinant hCD3ε molecules were covalently immobilized to a carboxymethylated dextran surface (CM5 sensorchip; Biacore, Cytiva) and a titration series of each MATCH3 molecule was injected as analyte. After each analyte injection-cycle, every flow channel on the sensor chip was regenerated (Glycine, pH 2.0 and 3 M MgCl₂), and a new concentration of MATCH3 molecule was injected. […] The apparent dissociation (kₐ₁) and association (kₐ₁) rate constants, the second reaction constants (kₐ₂ and kd) and the apparent dissociation equilibrium constant (KD) were calculated with the Biacore analysis software (Biacore Evaluation software Version 3.2, Cytiva) using a two-state binding model, and quality of the fits was monitored based on relative Chi2. The binding level was calculated as the maximum stability binding achieved normalized to the theoretical Rmax.

[4] = target: T1, human ROR1 expressed on cells; test: cell-based or functional assay
[5] = target: T1, human ROR1 expressed on cells; test: cell-based or functional assay; remark: listed apart in the source
[6] = target: T3, recombinant human ROR1 protein (Fc-Tag, Acro Biosystems RO1-H5250) (human, UniProt Q01973 30-406); test: SPR; hROR1-Fc immobilized;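 further: biacore T200 SPR with ROR1 covalently coupled to a CM5 chip, analyte titration series, apparent rate and equilibrium constants fitted with a 1:1 Langmuir model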
T3 construct: Bought; also called hROR1; recombinant human ROR1 ECD; not shown: Fc tag

[7] = target: T1, human ROR1 expressed on cells; test: cell-based or functional assay; remark: listed apart in the source
[8] = target: T2, recombinant human CD3 epsilon …; test: SPR; hCD3ε immobilized, two-state fit (ka1)
Protocol: as §1

[9] = target: T1, human ROR1 expressed on cells; test: cell-based or functional assay; remark: listed apart in the source

Row | Binder | EC50 [1] | Rel. maximum binding (MFIscMATCH3/MFIPRO2213) [1] | Kd [2] | ka2 [2] | kd2 [2] | koff [3] | EC50 (nM) Cytotoxicity (MDA-MB-231) [4] | Avg. % max. lysis (JIMT-1) [5] | Avg. % max. lysis (MDA-MB-231) [5] | Avg. % max. lysis (SKOV3) [5] | Avg. EC50 (nM) CD8 T cell act. (MDA-MB-231) [5] | Avg. EC50 (nM) CD8 T cell act. (SKOV3) [5] | Avg. EC50 (nM) Cytotoxicity (JIMT-1) [5] | Avg. EC50 (nM) Cytotoxicity (MDA-MB-231) [5] | Avg. EC50 (nM) Cytotoxicity (SKOV3) [5] | Kd [6] | koff [6] | kon [6] | Avg. % max. CD4 T cell act. (JIMT-1) [7] | kon [8] | also measured
1 | PRO2557 (bispecific antibody, trispecific anti-ROR1 x hSA x CD3 scMATCH3, single chain; also called 19-04-A10-sc06 scDb-o/28-21-D09-sc04 scDb-i/55-39-G02-sc06-scFv) AFELTQSPSSLSASVGDRVTITCQASESINSRLAWYQQKPGQPPKLLIYDASDLTSGVPSRFSGSGSGTDFTLTISSLQPEDFATYYCQGYGGSSTTTFGCGTKLTVLGGGGGSEVQLVESGGGLVQPGGSLRLSCAASGFSLSSYDMSWVRQAPGKGLAWIGASYASGPTYYASWAKGRFTISRDNSKNTVYLQMNSLRAEDTATYFCARGGWTGTSHSNIWGQGTLVTVSSGGGGSGGGGSGGGGSGGGGSDIQMTQSPSSLSASVGDRVTITCQSSQSVFSNNYLAWFQQKPGQSPKRLIYSASTLASGVPSRFSGSGSGTDFTLTISSLQPEDFATYYCLGSYACSSADCYVFGTGTKVTVLGGGGGSEVQLVESGGGLVQPGGSLRLSCAASGFSLSSYAMNWVRQAPGKCLEWIGHINAGDIAYYATWAKGRFTISRDNSKNTVYLQMNSLRAEDTAVYFCARGAGGFSTGPFKLWGQGTLVTVSSGGGGSGGGGSAQQLTQSPSSLSASVGDRVTITCQASQNVWNNNYLSWFQQKPGKPPKLLIVTASTLASGVSSRFSGSGSGTDFTLTISSLQPEDFATYYCAGGFSGEIRAFGCGTKVTVLGGGGGSGGGGSGGGGSGGGGSQSQLVESGGGLVQPGGSLRLSCAVSGIDLSRNAMSWVRQAPGKCLEWIGIILTSGSTYYASWAKGRFTISKTSTTLDLQMNSLRAEDTAVYFCVRGIASSSLKSFWGQGTLVTVSS | 3.27 nM | 2.43 | 5.5 nM | 0.00042 s⁻¹ | 0.0014 s⁻¹ | 0.0031 s⁻¹ | 3.1 nM | 83% | 78.2% | 88% | 0.52 nM | 1.2 nM | 3.4 nM | 0.74 nM | 1.3 nM | 1.6 nM | 0.00067 s⁻¹ | 420000 M⁻¹ s⁻¹ | 69.3% | 430000 M⁻¹ s⁻¹ | Avg. % max. CD4 T cell act. (MDA-MB-231) [7]: 77.7%; Avg. % max. CD4 T cell act. (SKOV3) [7]: 87.5%; Avg. EC50 (nM) CD4 T cell act. (JIMT-1) [7]: 3.3 nM; Avg. EC50 (nM) CD4 T cell act. (MDA-MB-231) [7]: 0.2 nM; Avg. EC50 (nM) CD4 T cell act. (SKOV3) [7]: 0.55 nM; Avg. % max. CD8 T cell act. (JIMT-1) [9]: 48.7%; Avg. % max. CD8 T cell act. (MDA-MB-231) [9]: 65.3%; Avg. % max. CD8 T cell act. (SKOV3) [9]: 81.5%; Avg. EC50 (nM) CD8 T cell act. (JIMT-1) [9]: 5.4 nM; Avg. EC50 (nM) CD8 T cell act. (MDA-MB-231) [9]: 0.52 nM; Avg. EC50 (nM) CD8 T cell act. (SKOV3) [9]: 1.2 nM
2 | PRO2509 (bispecific antibody, trispecific anti-ROR1 x hSA x CD3 scMATCH3, single chain; also called 19-04-A10-sc06 scDb-o/28-21-D09-sc04 scDb-i/55-39-G02-sc02-scFv) AFELTQSPSSLSASVGDRVTITCQASESINSRLAWYQQKPGQPPKLLIYDASDLTSGVPSRFSGSGSGTDFTLTISSLQPEDFATYYCQGYGGSSTTTFGCGTKLTVLGGGGGSEVQLVESGGGLVQPGGSLRLSCAASGFSLSSYDMSWVRQAPGKGLAWIGASYASGPTYYASWAKGRFTISRDNSKNTVYLQMNSLRAEDTATYFCARGGWTGTSHSNIWGQGTLVTVSSGGGGSGGGGSGGGGSGGGGSDIQMTQSPSSLSASVGDRVTITCQSSQSVFSNNYLAWFQQKPGQSPKRLIYSASTLASGVPSRFSGSGSGTDFTLTISSLQPEDFATYYCLGSYACSSADCYVFGTGTKVTVLGGGGGSEVQLVESGGGLVQPGGSLRLSCAASGFSLSSYAMNWVRQAPGKCLEWIGHINAGDIAYYATWAKGRFTISRDNSKNTVYLQMNSLRAEDTAVYFCARGAGGFSTGPFKLWGQGTLVTVSSGGGGSGGGGSAQQLTQSPSSLSASVGDRVTITCQASQNVWNNNYLSWFQQKPGKPPKLLIVTASTLASGVSSRFSGSGSGTDFTLTISSLQPEDFATYYCAGGFSGEIRAFGTGTKVTVLGGGGGSGGGGSGGGGSGGGGSQSQLVESGGGLVQPGGSLRLSCAVSGLSLSRNAMSWVRQAPGKGLEWIGIILTSGSTYYASWAKGRFTISKDNSKNTVYLQMNSLRAEDTAVYFCVRGIASSSLKSFWGQGTLVTVSS | 1.12 nM | 2.57 | 2.1 nM | 0.00096 s⁻¹ | 0.0016 s⁻¹ | 0.0034 s⁻¹ | 0.31 nM | – | – | – | – | – | – | – | – | 0.36 nM | 0.00047 s⁻¹ | 1.3e+06 M⁻¹ s⁻¹ | – | 1e+06 M⁻¹ s⁻¹ | –
3 | PRO2507 (bispecific antibody, trispecific anti-ROR1 x hSA x CD3 scMATCH3, single chain; also called 19-04-A10-sc06 scDb-o/28-21-D09-sc04 scDb-i/55-38-D07-sc02-scFv) AFELTQSPSSLSASVGDRVTITCQASESINSRLAWYQQKPGQPPKLLIYDASDLTSGVPSRFSGSGSGTDFTLTISSLQPEDFATYYCQGYGGSSTTTFGCGTKLTVLGGGGGSEVQLVESGGGLVQPGGSLRLSCAASGFSLSSYDMSWVRQAPGKGLAWIGASYASGPTYYASWAKGRFTISRDNSKNTVYLQMNSLRAEDTATYFCARGGWTGTSHSNIWGQGTLVTVSSGGGGSGGGGSGGGGSGGGGSDIQMTQSPSSLSASVGDRVTITCQSSQSVFSNNYLAWFQQKPGQSPKRLIYSASTLASGVPSRFSGSGSGTDFTLTISSLQPEDFATYYCLGSYACSSADCYVFGTGTKVTVLGGGGGSEVQLVESGGGLVQPGGSLRLSCAASGFSLSSYAMNWVRQAPGKCLEWIGHINAGDIAYYATWAKGRFTISRDNSKNTVYLQMNSLRAEDTAVYFCARGAGGFSTGPFKLWGQGTLVTVSSGGGGSGGGGSDVQMTQSPSSLSASVGDRVTITCRASENIYSGLAWYQQKPGKPPKLLIYRASTLASGVSSRFSGSGSGTDFTLTISSLQPEDFATYYCQGGYYSSSSTYIAFGTGTKVTVLGGGGGSGGGGSGGGGSGGGGSQSQVVESGGGLVQPGGSLRLSCAVSGFDLSSYAVSWVRQAPGKGLEWIGIIYPRANTYYASWAKGRFTISKDNSKNTVYLQMNSLRAEDTAVYFCARDRYDSGAYLYTTYFNLWGQGTLVTVSS | 26.9 nM | 2.88 | 9.4 nM | 0.0069 s⁻¹ | 0.0078 s⁻¹ | 0.006 s⁻¹ | 1 nM | 63.9% | 64.6% | 79.1% | 0.36 nM | 0.34 nM | 2 nM | 0.47 nM | 0.42 nM | < 0.12 nM | < 1e-05 s⁻¹ | 82000 M⁻¹ s⁻¹ | 63.2% | 340000 M⁻¹ s⁻¹ | Avg. % max. CD4 T cell act. (MDA-MB-231) [7]: 81.8%; Avg. % max. CD4 T cell act. (SKOV3) [7]: 83.3%; Avg. EC50 (nM) CD4 T cell act. (JIMT-1) [7]: 2.4 nM; Avg. EC50 (nM) CD4 T cell act. (MDA-MB-231) [7]: 0.14 nM; Avg. EC50 (nM) CD4 T cell act. (SKOV3) [7]: 0.22 nM; Avg. % max. CD8 T cell act. (JIMT-1) [9]: 40.8%; Avg. % max. CD8 T cell act. (MDA-MB-231) [9]: 68%; Avg. % max. CD8 T cell act. (SKOV3) [9]: 64.3%; Avg. EC50 (nM) CD8 T cell act. (JIMT-1) [9]: 2.9 nM; Avg. EC50 (nM) CD8 T cell act. (MDA-MB-231) [9]: 0.36 nM; Avg. EC50 (nM) CD8 T cell act. (SKOV3) [9]: 0.34 nM
